According to patent US20030224458A1 (published 2003):
Ends that are not written are not given here.

biological target: T1, HGPRBMY23 polypeptide (novel human G-protein coupled receptor) (human, UniProt Q96P68 1-337); test: phage display panning on CHO-K1 cells transfected with HGPRBMY23, after preadsorption on integrin and parental cells
T1 construct: For phage panning it was expressed on CHO-K1 cells from the pcDNA3.1 Hygro-HGPRBMY23 construct; For immunohistochemistry it was the native protein in paraffin-embedded, formalin-fixed tissue sections; also called GPCR92
T1 sequence (Q96P68 whole entry): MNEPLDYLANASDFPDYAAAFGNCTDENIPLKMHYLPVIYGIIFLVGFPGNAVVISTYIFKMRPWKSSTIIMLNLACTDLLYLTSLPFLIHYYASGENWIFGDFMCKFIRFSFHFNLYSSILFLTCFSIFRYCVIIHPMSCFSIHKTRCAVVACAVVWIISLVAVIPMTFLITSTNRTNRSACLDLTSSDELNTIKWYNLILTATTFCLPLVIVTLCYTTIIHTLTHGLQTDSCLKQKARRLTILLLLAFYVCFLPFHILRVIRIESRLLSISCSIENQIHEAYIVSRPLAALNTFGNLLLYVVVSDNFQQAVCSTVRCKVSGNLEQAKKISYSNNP
Description: Typically, this corresponded to one P175 flask with near-confluent growth. A similar number of parental cells were grown for preadsorption. One day prior to panning, two or three 96-well Immulon plates were coated integrin. Plates were coated overnight at 4° C. in NaHCO₃, pH 9.5, with ˜50 ng of αVβ3 integrin (Chemicon; Cat. #CC1020) per well per library.
On the day of panning, growth medium was discarded and cells were washed with 10 ml PBS by allowing the buffer to flow over the cells. The PBS was removed and 10 ml Tris-EDTA detaching buffer (Gibco Cat. #13150-016; no trypsin) was added for 2 min. Plates were tapped and/or pipetted up and down to detach cells. This was done quickly to minimize the exposure of the cells to this reagent. Cells were pelleted by centrifugation at 3K, and then washed with 20 ml PBS. Cells were resuspended cells in PBS with 2% milk blocking agent plus protease inhibitor (EDTA-free; Roche Cat. #1 873 580). For each library, cell suspensions of ˜500 ul were used. Cells were blocked for 30-60 min with gentle rocking at room temperature. The integrin-coated wells were washed 3× in PBST, then blocked with 2% BSA in PBS for 30 min or more. To preadsorb against integrin, input phage was added to the integrin-coated wells, and incubated for 30 min or more.
At this stage, the blocked parental cells were divided into the required number of aliquots (500 ul aliquot/library). The phage supernatants were added from the integrin-preadsorption step. Preadsorption against the parental cells was carried out for 30 min or more with gentle rocking. The blocked transfected cells were divided into the required number of aliquots (500 ul aliquot per library). The transfected cells were pelleted, and the supernatant was discarded. The phage supernatants from the two preadsorption steps were added, and cells were incubated with gentle rocking for 2 h or more. Cells were washed 6-8×with PBST at 5 min intervals. Each wash was performed by gently pipetting the cells up and down, and cells were centrifuged at low speed. […]

Row | binding result | Binder
1 | binds | LFASSDWSSFPVLVF (also: synthetic versions N-acetylated, C-terminal amide, also phage-displayed, Synthetic versions are described as N-acetylated peptides made on Knorr amide resin (C-terminal amide)) [Peptide modulator of HGPRBMY23 LFASSDWSSFPVLVF]
2 | binds | SRVSGAKVWFLSNWS (also: synthetic versions N-acetylated, C-terminal amide, also phage-displayed, Synthetic versions are described as N-acetylated peptides made on Knorr amide resin (C-terminal amide)) [Peptide modulator of HGPRBMY23 SRVSGAKVWFLSNWS]
3 | binds | FVGTFDWQSYPLLSF (not fully specified (N-terminus, C-terminus), Synthetic versions are described as N-acetylated peptides made on Knorr amide resin (C-terminal amide)) [Peptide modulator of HGPRBMY23 FVGTFDWQSYPLLSF]
